In article PMC6128213:

Molecular target: human fibronectin (human) (UniProt P02751)
Test: AFM single molecule force spectroscopy

In the case of “pilus-1 adhesin RrgA from Streptococcus pneumoniae (natural protein)”, the most probable rupture force fMP is reported as 51.6 pN.
